The experiment concerns the target T1, Aβ42 oligomers (UniProt P05067 672-713).
T1 construct: domain: Aβ42; Oligomeric state
Nature of the experiment: ELISA on coated Aβ42 oligomers, His-tagged polypeptide at 1 µg per well. In general terms: An ELISA detects its analyte on a solid surface through an enzyme-linked reagent.

In US20190330271A1 (HANGZHOU WISDOM PANACEA BIOLOGICS, published 2019) one finds OD450 data, which are given here for 2 molecules.

T1 sequence (P05067 672-713 limits assumed): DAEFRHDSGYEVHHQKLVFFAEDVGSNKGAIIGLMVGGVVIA
Experimental: 100 μL of monomers, oligomers or fibers of Aβ42, PrP, amylin, insulin or lysozyme were respectively coated onto a 96-well ELISA microplate at 1 μg/well, BSA was used as a negative control. The plate were then placed at 37° C. for 2 h, blocked with 200 μL/well of 3% BSA at 37° C. for 2 h, and washed 3 times with PBS. 100 μL of histidine-tagged ZR polypeptide solution was added, and the plate was incubated at room temperature for 1 h, and then washed 3 times with PBS containing 0.1% Tween-20. 100 μL of HRP-linked antibody 9E10 which can recognize the histidine tag was added to each well, and the plate was incubated at room temperature for 1 h, and then washed 3 times with PBS containing 0.1% Tween-20. 100 μL of TMB was added to each well, and the plate was placed at 37° C. for 20 min. Then, 50 μL of 1 mmol/L sulfuric acid was added to each well to terminate the reaction, and OD450 values were measured using a microplate reader. The above procedure was repeated for 3 times under the same condition.

B1: SEQ ID NO: 8, histidine-tagged (peptide)
peptide: SAFNNKR
notes: also called ZR with position 2 substituted with alanine; not shown: histidine tag
Molecule B1 yielded an OD450 of 0.48.

B2: SEQ ID NO: 10, histidine-tagged (peptide)
peptide: SFFANKR
notes: also called ZR with position 4 substituted with alanine; not shown: histidine tag
Turning to B2, the OD450 was 0.57.
